Measurements: patent US8852569B2, “Prevention and treatment of itch with cysteine protease inhibition” (The General Hospital Corporation, priority 2008, dated 2014)

Legend:
[1] = Chromogenic substrate assay, protease activity of the purified recombinant cathepsins; format: biochemical; conditions: FIG. 1; protease 0.84 μM
Experimental: The concentrations of all the three proteases are at 0.84 μM and that of E64, a non-selective irreversible inhibitor of cysteine proteases, is at 2 μM […].
Papain served as a positive control cysteine protease. The cathepsin S and K were further evaluated for their capacity to activate PAR receptors as noted below.

PAR2 = test: PAR activation by cytoplasmic calcium release in transfected HeLa cells (Fura-2 ratiometric imaging), PAR2; format: cell-based, human
Experimental: (§1) The responses to PAR 2 and 4 were blocked by the protease inhibitor E64 (10 μM) as a control). Other controls included vector alone and vector encoding the PAR1 receptor. Cathepsin S was added as indicated. The averages from at least three separate experiments were then combined +/−SD.
(§2) Salmon sperm (SS) DNA is used as control. The averages from at least three separate experiments were then combined +/−SD.
(§3) PAR activation observed by cytoplasmic calcium release—The four human PAR cDNAs were obtained from commercial sources and cloned into the pcDNA3.1(−) vector (INVITROGEN™ Inc.). HeLa cells were transfected with 10 μg of vector cDNA using Lipofectamine 2000 (INVITROGEN™ Inc.) and cultured for two days in 96-well glass bottom plates at 30,000 cells/well. Cells were loaded with Fura-2 as follows. The medium was aspirated and replaced with 100 μl of complete DMEM containing 2 μM Fura-2 (INVITROGEN™ Inc.) and kept at room temperature in the dark for 1 hr. The medium was again aspirated and each well received 90 μl of HEPES buffered saline (20 mM HEPES, 115 mM NaCl, 5.4 mM KCl, 2 mM CaCl2, 0.8 mM MgCl2, 13.8 mM glucose, pH 7.4). Plates were observed using a Zeiss Axiovert 200M microscope equipped with a filter wheel for monitoring excitation at 340 and 380 nm. Axiovision software, version 4.6 was used to analyze ratiometric calcium imaging of the cells. […]

human volunteers = test: Itch evoked by inactivated cowhage spicules reconstituted with cathepsin S, inserted into skin; format: in vivo
Experimental: Recombinant cathepsin S also evokes itch in human volunteers. In this experiment, native itch-evoking spicules from the plant Mucuna pruriens were inactivated by autoclaving for 1 hour and reconstituted with recombinant cathepsin S. Typically, 50 mg of inactivated spicules were mixed with 0.4 ml of 1 mg of recombinant cathepsin S in 0.1M NaCl with 0.01 M L-cysteine in a 2 ml microfuge tube, vortexed, dried in a Speed-vac for 2 hours at room temperature, vortexed again and transferred to a new tube. This second vortex step allowed for precipitated salt to be separated from the spicules. These spicules were then considered ‘reconstituted’ with the cathepsin S. Individual spicules were then superficially inserted approximately 0.2 mm into the skin of volunteers who rated the subsequent itch as “very strong”. The mean perceived intensity of itch and nociceptive sensation evoked by a single inactivated spicule reconstituted with cathepsin S on nine human volunteers is shown in FIG. 3A. The mean perceived intensity is similar with that for itch and nociceptive sensation evoked by a single spicule of native cowhage for the same nine volunteers.

PAR1 = test: PAR activation by cytoplasmic calcium release in transfected HeLa cells (Fura-2 ratiometric imaging), PAR1; format: cell-based, human; conditions: HeLa cells transfected with PAR1
Experimental: as §1
as §3, with “cells. Ten μl of a 21 μM solution of recombinant human cathepsin S were applied approximately 20 seconds after the start of excitation.” for “cells.”

PAR4 = test: PAR activation by cytoplasmic calcium release in transfected HeLa cells (Fura-2 ratiometric imaging), PAR4; format: cell-based, human
Experimental: as §1, §2, §3

[2] = cathepsin S 30 nM versus mucunain

Row | Molecule | capacity to cleave the chromogenic substrate Z-Phe-Arg-pNA [1] | concentration at which strong activation of PAR2 occurred (calcium flux) (PAR2; HeLa cells transfected with PAR2) [nM] | activating concentration relative to that needed for stimulation via mucunain, PAR2 (PAR2; [2]) | mean perceived intensity of itch and nociceptive sensation compared with a single spicule of native cowhage (human volunteers; nine human volunteers, FIG. 3A versus 3B) | itch rating by volunteers (human volunteers; single reconstituted spicule inserted approximately 0.2 mm into skin) | activation of PAR1 (calcium flux) (PAR1) | concentration at which strong activation of PAR4 occurred (calcium flux) (PAR4; HeLa cells transfected with PAR4) [nM] | activating concentration relative to that needed for stimulation via mucunain, PAR4 (PAR4; [2])
1 | cathepsin K: recombinant human cysteine protease, expressed in E. coli as zymogen and cleaved to active enzyme (protein) APDSVDYRKKGYVTPVKNQGQCGSCWAFSSVGALEGQLKKKTGKLLNLSPQNLVDCVSENDGCGGGYMTNAFQYVQKNRGIDSEDAYPYVGQEESCMYNPTGKAAKCRGYREIPEGNEKALKRAVARVGPVSVAIDASLTSFQFYSKGVYYDESCNSDNLNHAVLAVGYGIQKGNKHWIIKNSWGENWGNKGYILMARNKNNACGIANLASFPKM | had protease activity | – | – | – | – | – | – | –
2 | cathepsin S: recombinant human cysteine protease, expressed in E. coli as zymogen and cleaved to active enzyme (protein) LPDSVDWREKGCVTEVKYQGSCGACWAFSAVGALEAQLKLKTGKLVSLSAQNLVDCSTEKYGNKGCNGGFMTTAFQYIIDNKGIDSDASYPYKAMDQKCQYDSKYRAATCSKYTELPYGREDVLKEAVANKGPVSVGVDARHPSFFLYRSGVYYEPSCTQNVNHGVLVVGYGDLNGKEYWLVKNSWGHNFGEEGYIRMARNKGNHCGIASFPSYPEI | had protease activity | 30 | at least ten-fold less | similar | very strong | no activation | 30 | at least ten-fold less
